Numbering of substitutions follows the chain as printed.
How the values were obtained:
[1] = biological target: T1, human FcγRIIA 131H on blood cells of 131H/H donors (human, UniProt P12318 34-317); assay: cell-based or functional assay
T1 sequence (looked up): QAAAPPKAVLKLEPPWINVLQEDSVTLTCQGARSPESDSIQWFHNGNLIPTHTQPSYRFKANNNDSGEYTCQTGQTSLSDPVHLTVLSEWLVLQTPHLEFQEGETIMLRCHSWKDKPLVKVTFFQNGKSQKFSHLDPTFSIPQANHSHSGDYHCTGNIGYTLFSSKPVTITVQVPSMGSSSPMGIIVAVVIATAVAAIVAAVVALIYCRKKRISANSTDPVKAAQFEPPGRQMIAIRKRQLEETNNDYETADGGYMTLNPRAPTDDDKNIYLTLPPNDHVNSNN

[2] = biological target: T2, human FcγRIIA 131R on blood cells of 131R/R donors (human, UniProt P12318 34-317); assay: cell-based or functional assay
T2 sequence: T1 sequence (looked up) with H134R

[3] = biological target: cynomolgus monkey FcγRIIA on blood cells (cynomolgus monkey); assay: cell-based or functional assay
[4] = biological target: T3, human FcγRIIA on primary human cells (neutrophils; sorted CD14+ monocytes), allotype not stated (human, UniProt P12318 34-317); assay: flow cytometry, fluorescently labelled antibody on human neutrophils, without IVIG
T3 construct: whole, on cells; also called human FcγRIIA at the neutrophil surface; FcγRIIA-expressing neutrophils
T3 sequence (looked up): T1 sequence (looked up)
Experimental: (§1) Human neutrophils were re-suspended in blocking buffer [phosphate-buffered saline (PBS) supplemented with 10% fetal bovine serum] and transferred to round-bottom 96-well culture plates (0.5×10^6 cells/well). […] After incubation, cells were washed with cold PBS and the mean fluorescence intensity (MFI) of cell-bound antibodies was assessed by flow cytometry using an LSRII (BD; Franklin Lakes, NJ). The EC₅₀ for binding was calculated using a non-linear fit equation in GraphPad Prism 6 software.

[5] = biological target: T4, recombinant human FcγRI (ELISA coat, generated at MedImmune) (human, UniProt P12314 16-292, limits assumed); assay: ELISA on plate-coated FcγRI (2 µg/ml), detection with goat anti-human Fc-HRP
T4 construct: also called CD64
T4 sequence (P12314 16-292 limits assumed): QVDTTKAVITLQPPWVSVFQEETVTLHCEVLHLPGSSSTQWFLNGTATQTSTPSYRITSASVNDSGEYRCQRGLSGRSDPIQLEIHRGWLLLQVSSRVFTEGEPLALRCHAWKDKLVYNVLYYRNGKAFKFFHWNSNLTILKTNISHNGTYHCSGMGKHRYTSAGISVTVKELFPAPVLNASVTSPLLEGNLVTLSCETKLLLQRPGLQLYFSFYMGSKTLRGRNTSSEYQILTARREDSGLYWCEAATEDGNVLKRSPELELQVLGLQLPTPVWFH
Experimental: (§2) Plates were washed five times with 200 μl of wash buffer (PBS containing 0.1% Tween 20), blocked with blocking buffer containing 5% milk in PBS for 1 hour at room temperature, and washed five additional times with wash buffer. Three-fold serial dilutions of the test antibody or control antibody (R347-Tm) were added to wells in duplicate. Plates were incubated for 2 hours at room temperature, and washed five times with wash buffer. Binding of the antibodies to the FcγRs was detected by adding 50 μl of goat anti-human Fc-HRP (Jackson ImmunoResearch Laboratories, PA) to the wells and incubating for 1 hour at room temperature, washing 10 times, and adding 50 μl TMB substrate (Pierce Biotechnology, MA). The color reaction was stopped with 50 μl 0.2M […] and the absorbance was measured using a spectrophotometer (Molecular Devices, CA) at […].

[6] = biological target: T5, recombinant FcγRIIB (ELISA coat, generated at MedImmune) (UniProt P31994 43-217, limits assumed); assay: ELISA on plate-coated FcγRIIB (2 µg/ml), detection with goat anti-human Fc-HRP
T5 construct: also called CD32B
T5 sequence (looked up): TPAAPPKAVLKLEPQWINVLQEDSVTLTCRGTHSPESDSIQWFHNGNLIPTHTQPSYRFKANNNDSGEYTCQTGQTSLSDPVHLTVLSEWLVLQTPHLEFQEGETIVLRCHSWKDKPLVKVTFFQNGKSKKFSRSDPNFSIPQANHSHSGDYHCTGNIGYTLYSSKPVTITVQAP
Experimental: as §2

[7] = biological target: T6, recombinant human FcγRIIIA-158F allotype (ELISA coat, generated at MedImmune) (human, UniProt P08637 17-208, limits assumed); assay: ELISA on plate-coated FcγRIIIA-158F (2 µg/ml), detection with goat anti-human Fc-HRP
T6 construct: also called FcγRIII-158F allotype; CD16A 158F
T6 sequence (P08637 17-208 limits assumed): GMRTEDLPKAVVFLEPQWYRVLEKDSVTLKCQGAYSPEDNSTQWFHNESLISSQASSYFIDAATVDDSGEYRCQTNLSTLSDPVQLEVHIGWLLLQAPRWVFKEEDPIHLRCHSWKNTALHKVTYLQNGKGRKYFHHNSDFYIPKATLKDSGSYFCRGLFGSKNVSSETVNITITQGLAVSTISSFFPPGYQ
Experimental: as §2

[8] = biological target: T7, recombinant human FcγRIIIA-158V allotype (ELISA coat, generated at MedImmune) (human, UniProt P08637 17-208, limits assumed); assay: ELISA on plate-coated FcγRIIIA-158V (2 µg/ml), detection with goat anti-human Fc-HRP
T7 construct: also called FcγRIII-158V allotype; CD16A 158V
T7 sequence (P08637 17-208 F176V limits assumed): as the sequence (P08637 17-208 limits assumed) above, with F160V counted along it
Experimental: as §2

[9] = biological target: T8, recombinant FcγRIIA-131H/H allotype (ELISA coat, generated at MedImmune) (human, UniProt P12318 34-217, limits assumed); assay: ELISA on plate-coated FcγRIIA-131H/H (2 µg/ml), detection with goat anti-human Fc-HRP
T8 construct: also called human FcγRIIA; CD32A
T8 sequence (looked up): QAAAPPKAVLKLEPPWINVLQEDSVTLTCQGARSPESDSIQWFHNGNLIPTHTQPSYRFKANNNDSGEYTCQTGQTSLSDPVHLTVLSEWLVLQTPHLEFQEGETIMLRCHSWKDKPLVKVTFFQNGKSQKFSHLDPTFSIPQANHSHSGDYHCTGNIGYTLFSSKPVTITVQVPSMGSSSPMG
Experimental: as §2

[10] = biological target: T3, human FcγRIIA on primary human cells …; assay: flow cytometry, fluorescently labelled antibody on human neutrophils, 30 min at 4 °C, without IVIG
Experimental: as §1

[11] = biological target: T3, human FcγRIIA on primary human cells …; assay: flow cytometry, fluorescently labelled antibody on human neutrophils, in the presence of 10 mg/mL IVIG as competitor
Experimental: as §1

[12] = biological target: T3, human FcγRIIA on primary human cells …; assay: flow cytometry, fluorescently labelled antibody on human neutrophils, 30 min at 4 °C, in the presence of 10 mg/mL IVIG as competitor
Experimental: as §1

B1: 32LO0352 (MEDI9600) (antibody, human IgG1, V domains shown)
VH: QVQLVQSGAEVKKPGASVKVSCKASGYTFTNYGMNWVRQAPGQRLEWMGWLNTYTGESWYPDDFKGRVTITRDTSASTAYMELSSLRSEDTAVYYCARGDYGYDDPLDYWGQGTLVTVSS
VL: DIVMTQSPLSLPVTPGEPASISCRSSKSLLHTNQNTYLHWFLQKPGQSPQLLIYRMSVLASGVPDRFSGSGSGTDFTLKISRVEAEDVGVYYCMQHLEYPLTFGQGTKLEIK
notes: Fluorescently labelled in the neutrophil flow cytometry assay and Alexa 647 labelled for confocal microscopy; also called clone 32LO0352; CD32LO0352
With B1 the “IC50 of the loss of surface FcγRIIA (M.F.I of IV.3-Alexa 647) on monocytes, whole blood, 2 h at 37 °C” value [1] was 0.0809 nM, the “IC50 of the loss of surface FcγRIIA (M.F.I of IV.3-Alexa 647) on monocytes, whole blood, 2 h at 37 °C” value [2] was 0.0593 nM and the “IC50 of the loss of surface FcγRIIA (M.F.I of IV.3-Alexa 647) on cynomolgus monocytes, whole blood, 2 h at 37 °C” value [3] was 1.09 nM. The EC50 [4] was 0.03 nM, the binding result [5] was “no binding (tested: about 15000 ng/ml)” and the binding result [6] was “no binding (tested: about 15000 ng/ml)”. The binding result [7] was “no binding (tested: about 15000 ng/ml)”, the binding result [8] was “no binding (tested: about 15000 ng/ml)” and the “EC50 (read off the curve)” value [9] was about 5 ng/mL. The EC50 [10] was 0.0293 nM, the EC50 [11] was 3.34 nM and the EC50 [12] was 3.35 nM.

From patent publication US20260125478A1 (VIELA BIO, published 2026)
